The target of assay [1] is human cytoplasmic dynein-1 complex (recombinant, SNAPf tag on the heavy chain) (human) (UniProt Q14204).
For assay [2] the target is unchanged. Description: single-molecule TIRF co-localisation on microtubules; Alexa647-BICD2N (10x) and TMR-dynein (20 nM in the assembly mix, 1 in 2 dilution) with EB1, dynactin (2x) and LIS1 (20x) on dynamic microtubules.
Assay [3] deals with native dynactin complex purified from pig brain (pig (purified from pig brain)).
The target of assay [4] is microtubules polymerised from porcine tubulin (porcine). Briefly: single-molecule TIRF microscopy of binding to microtubules; dynein (100 nM in the assembly mix, 1 in 20 dilution) alone or with a 20x or 300x molar excess of LIS1 on immobilised taxol/GMPCPP-stabilised microtubules, without EB1 and dynactin; 2.5 mM ATP.

SNAPf::BICD2N (residues 1-400 of mouse Bicaudal-D2 with an N-terminal SNAPf tag), sequence (Q921C5 1-400): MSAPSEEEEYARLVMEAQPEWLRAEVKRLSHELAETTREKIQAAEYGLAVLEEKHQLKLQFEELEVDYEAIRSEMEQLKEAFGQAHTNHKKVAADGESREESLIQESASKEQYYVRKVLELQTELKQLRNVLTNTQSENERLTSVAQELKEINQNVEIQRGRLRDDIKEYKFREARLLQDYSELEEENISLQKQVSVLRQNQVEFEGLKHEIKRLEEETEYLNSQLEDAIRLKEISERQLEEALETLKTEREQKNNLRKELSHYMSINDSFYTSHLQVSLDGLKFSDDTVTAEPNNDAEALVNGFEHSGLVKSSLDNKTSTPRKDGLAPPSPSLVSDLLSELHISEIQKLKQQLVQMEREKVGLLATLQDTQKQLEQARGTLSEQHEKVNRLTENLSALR

For the substance “SNAPf::BICD2N (residues 1-400 of mouse Bicaudal-D2 with an N-terminal SNAPf tag) (from UniProt Q921C5 1-400) (domain or fragment)”, the proportion of microtubule-associated dynein complexes in minus end-directed motion with dynactin and BICD2N, without (45%) and with LIS1 (70%) in assay [1] was 70%. In assay [2], the percent of plus-end tracking events of TMR-dynein with Alexa647-BICD2N signal turned out to be 40%.
With “human cytoplasmic dynein-1 complex (recombinant, SNAPf tag on the heavy chain) (from UniProt Q14204 1-4646; O43237-1 1-492; P63172 1-113; P63167 1-89; Q9NP97-1 1-96)”, in assay [3], the plus-end tracking of Alexa647-dynein on growing microtubules with EB1 and dynactin (TIRF): maximal duration of tracking events is 9 s; the plus-end tracking of Alexa647-dynein on growing microtubules with EB1 and dynactin (TIRF): mean duration of tracking events worked out at 4 s. For the same substance, the fold increase of the landing rate on the lattice with a 300-fold molar excess of LIS1 against no LIS1 in assay [4] amounted to 3 fold.

Source of the values: publication PMC5413349.
